Experimental data reported in article doi:10.1101/2023.04.01.535202, “Three small partner proteins facilitate the type VII-dependent secretion export of an antibacterial nuclease” (bioRxiv, 2023).

B1: EsaDEG complex (complex)
chain 1: MTKDIEYLTADYDNEKSSIQSVIDAIEGQDFLDVDTTMDDAVSDVSSLDEDGAISLTSSVVGPQGSKLMGYYQNELYDYASQLDSKMKEIIDTPFIEDIDKAFKGITNVKLENILIKNGGGHGRDTYGASGKIAKGDAKKSDSDVYSIDEILKSDQEFVKVIDQHYKEMKKEDKKLSKSDFEKMMTQGASCDYMTVAEAEELEEQKKKEEAIEIAALAGMVVLSCINPVAGAVAIGAYSAYSAANAATGKNIVTGRKLSKEERIMEGLSLIPLPGMGFLKGAGKSLMKLGFKGGEKFAVKTGLQKTMQQAVSRISPKMGMMKNSVLNQSRNFAQNTHVGQMLSNMRGQATHTVQQSRNWIGQQAQNVKRIVNNGLDKEIAHPFKQQLAPAGMGGIKFAETTTLRNMGQNIKRAVTPQNHVTHGPKDSMVRSEGKHSISSHEMNSSKYVESPNYTKVEFGEHYARLRPKKLKANIEYTTPTGHIYRTDHKGRIKEVYVDNLSLKDGDRNSHAQRTVGGEDRLPDDDGGALIARMFGGSKDIDNLVAQSKFINRPFKEKGHWYNLEKEWQEFLNSGKEVKNIKMEVKYSGNSQRPTIFKVEYEINGERNIRRILNK
chain 2: MKDVKRIDYFSYEELTILGGSKLPLVNFELFDPSNFEEAKAALIEKELVTENDKLTDAGFKVATLVREYISAIVNIRINDMYFAPFSYEKDEYILLSRFKNNGFQIRIINKDIAWWSIVQSYPLLMRQEKSNDWDFKQIDDETLENLNNESIDTIGRVLEIEIYNHQGDPQQSLYNIYEQNDLLFIRYPLKDKVLNVHIGVINTFIRELFGFDTDENHINKAEE
chain 3: MTFEEKLSKIYNEIANEISSMIPVEWEKVYTMAYIDDGGGEVFFNYTKPGSDDLNYYTNIPKEYNISVQVFDDLWMDLYDLFEELRDLFKEEDLEPWTSCEFDFTREGELKVSFDYIDWINSEFGQIGRQNYYKYRKFGILPETEYEINKVKEIEQYIKELEE
notes: EsaD nuclease toxin of S. aureus, as m1; EsaE of S. aureus, as m2; EsaG of S. aureus, as m3; Cross-linked with glutaraldehyde for the experiment on dimers-of-trimers and for cryo-EM; also called EsaDEG trimer; not shown: His6, C-terminal, kept; copies: + +
B2: EsaDEG-EsxBCD complex (complex)
chain 1: B1 chain 1
chain 2: B1 chain 2
chain 3: B1 chain 3
chain 4: MGGYKGIKADGGKVDQAKQLAAKTAKDIEACQKQTQQLAEYIEGSDWEGQFANKVKDVLLIMAKFQEELVQPMADHQKAIDNLSQNLAKYDTLSIKQGLDRVNP
chain 5: MNFNDIETMVKSKFKDIKKHAEEIAHEIEVRSGYLRKAEQYKRLEFNLSFALDDIESTAKDVQTAKSSANKDSVTVKGKAPNTLYIEKRNLMKQKLEMLGEDIDKNKESLQKAKEIAGEKASEYFNKAMN
chain 6: MTLSGKISVKAETIAHVVKELESISQKYDEIAQNFGKIAQLNYYSSEKAAHSMENGYSSAATVISGLKGPLSTLGGGVMNSAQKFFEADEHWGTEFAKLYYNIEG
notes: EsaD nuclease toxin of S. aureus, as m1; EsaE of S. aureus, as m2; EsaG of S. aureus, as m3; EsxB of S. aureus, as m4; EsxC of S. aureus, as m5; EsxD of S. aureus, as m6; Cross-linked with glutaraldehyde for the experiment on dimers-of-hexamers and for cryo-EM; also called EsaDEG-EsxBCD hexamer; EsxBCD-EsaDEG complex; not shown: His6, C-terminal, kept; twin-strep, C-terminal, kept; copies: + + + …

Biological target: the molecule itself
Assay: cross-linking; purified complex from the major SEC peak at 0.5 mg/ml in 50 mM HEPES pH 7.5, 150 mM NaCl, 0.1% glutaraldehyde for 30 minutes at room temperature, quenched with tris; SEC and SDS-PAGE

Protein | stoichiometry N
B1 | 2
B2 | 2
